Patent publication US11578136B2, “Compositions and methods for treating cancer” (INNATE PHARMA, priority 2017, dated 2023)

T1: soluble recombinant human CD39 protein (Homo sapiens, UniProt P49961)
T1 construct: made in house; host or cells: CHO cells
T1 sequence (P49961 with tags, fused parts or gaps): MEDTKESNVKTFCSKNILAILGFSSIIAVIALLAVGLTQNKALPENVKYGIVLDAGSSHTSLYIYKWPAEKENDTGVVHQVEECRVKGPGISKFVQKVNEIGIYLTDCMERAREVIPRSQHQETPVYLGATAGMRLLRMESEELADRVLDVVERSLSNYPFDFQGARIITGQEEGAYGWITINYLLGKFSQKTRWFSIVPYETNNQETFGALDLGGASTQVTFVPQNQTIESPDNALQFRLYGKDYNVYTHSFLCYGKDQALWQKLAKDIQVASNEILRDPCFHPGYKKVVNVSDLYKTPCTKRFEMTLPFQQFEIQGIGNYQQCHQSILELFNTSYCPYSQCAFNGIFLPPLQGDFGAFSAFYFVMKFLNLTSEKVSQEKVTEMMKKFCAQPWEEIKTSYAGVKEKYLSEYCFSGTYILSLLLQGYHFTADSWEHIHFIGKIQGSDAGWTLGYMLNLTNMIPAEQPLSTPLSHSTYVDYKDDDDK


Key:
[1] = test system: NTPDase1, NTPDase3, NPP1 or mouse NTPDase8; conditions: not specific for CD39; cited from earlier work
[2] = test system: CD39 mutants transfected in Hek-293T cells; assay: Epitope mapping: binding to CD39 mutants by flow cytometry; set-up: species or system human
Procedure: CD39 mutants were generated by PCR. The sequences amplified were run on agarose gel and purified using the Macherey Nagel PCR Clean-Up Gel Extraction kit (reference 740609). The purified PCR products generated for each mutant were then ligated into an expression vector, with the ClonTech InFusion system. The vectors containing the mutated sequences were prepared as Miniprep and sequenced. After sequencing, the vectors containing the mutated sequences were prepared as Midiprep using the Promega PureYield™ Plasmid Midiprep System. HEK293T cells were grown in DMEM medium (Invitrogen), transfected with vectors using Invitrogen's Lipofectamine 2000 and incubated at 37° C. in a CO2 incubator for 48 hours prior to testing for transgene expression. The targeted amino acid mutations in the table 1 below are shown using numbering of SEQ ID NO: 1.
In order to define the epitopes of anti-CD39 antibodies, we designed CD39 mutants defined by substitutions of amino acids exposed at the molecular surface over the surface of CD39. Mutants were transfected in Hek-293T cells, as shown in the table 1, using numbering of SEQ ID NO: 1.
Dose-ranges of I-394 (10-2.5-0.625-0.1563-0.0391-0.0098-0.0024-0.0006 μg/ml) are tested on the 20 generated mutants by flow cytometry. […] Mutant 5 contains amino acid substitutions at residues Q96, N99, E143 and R147.
Mutants were transfected in Hek-293T cells, as shown in the table 1, using numbering of SEQ ID NO: 1. Dose-ranges of antibodies I-394 were tested on the 20 mutants by flow cytometry. […] Mutant 19 includes substitutions at residues R138, M139 and E142. The core epitope of I-394 thus includes one or more (or all of) residues R138, M139 and E142.
Mutants were transfected in Hek-293T cells, as shown in the table 1, using numbering of SEQ ID NO: 1.Dose-ranges of test antibodies (10-2.5-0.625-0.1563-0.0391-0.0098-0.0024-0.0006 μg/ml) are tested on the 20 generated mutants by flow cytometry.

[3] = target: T1, soluble recombinant human CD39 protein; assay: Inhibition of the enzymatic activity of soluble CD39 (Cell Titer Glo); assay type: biochemical; conditions: result in words; 400 ng/ml sCD39, 20 μM ATP
Procedure: The inhibition by antibodies of the enzymatic activity of soluble CD39 protein produced was evaluated using Cell Titer Glo™ (Promega, reference G7571) that allows assessment of ATP hydrolysis through use of a reagent that generates a luminescent signal proportional to the amount of ATP present. In this way, inhibition of the soluble-CD39-meidatd ATP hydrolysis can be assessed. Briefly, dose ranges of anti-CD39 antibodies from 100 μg/ml to 6×10^−3 μg/ml were incubated with 400 ng/ml of soluble recombinant human CD39 protein having the amino acid sequence described in the Methods section (SEQ ID NO: 45), for 1 h at 37° C. 20 μM ATP was added to the plates for 30 additional minutes at 37° C. before addition of CTG (Cell Titer Glo) reagent. Emitted light was quantified using an Enspire™ luminometer after a short incubation period of 5 min in the dark. Anti-CD39 antibody efficacy was determined by comparing emitted light in presence of antibody with ATP alone (maximal light emission) and ATP together with soluble CD39 protein (minimal light emission).

inhibition of the enzymatic activity of soluble CD39 protein [3]	Molecule	type of inhibition of NTPDases [1]	binding to mutant 11 of CD39 ([2]; mutant 11: N371K, L372K, E375A, K376G, V377A, insertion 377V)	binding to any other mutant of the 20 CD39 mutants ([2]; remaining mutants of Table 1)
	CCN(CC)c1ncnc2c1ncn2[C@@H]1O[C@H](COP(=O)(O)OP(=O)(O)C(Br)(Br)P(=O)(O)O)[C@@H](O)[C@H]1O [ARL67156]	weak competitive inhibitor		
showed inhibition	I-399: anti-CD39 antibody, VH SEQ ID NO: 30, VL SEQ ID NO: 31 (antibody, listed as Mus musculus, V domains shown) VH: PVQLQQPGAEVVMPGASVKLSCKASGYTFTSFWMNWMRQRPGQGLEWIGEIDPSDFYTNSNQRFKGKATLTVDKSSSTAYMQLSSLTSEDSAVYFCARGDFGWYFDVWGTGTSVTVSS VL: EIVLTQSPTTMTSSPGEKITFTCSASSSINSNYLHWYQQKPGFSPKLLIYRTSNLASGVPTRFSGSGSGTSYSLTIGTMEAEDVATYYCQQGSSLPRTFGGGTKLEIK		loss of binding	without loss of binding
